“Also recorded” adds a separate entry of the source.
Experiments:
[1] = tested on: inflammatory mediators in the gingiva of aged mice; experiment: qPCR of gingival mRNA in aged mice after local administration of soluble Del-1; type: in vivo, C57BL/6 mice; details: 12 h
Method: (§1) Ten 18-month-old C57BL/6 mice were microinjected in the gingiva with soluble recombinant mouse Del-1 (kindly provided by Valentis, Inc.)^4 and another ten mice with BSA control. Specifically, Del-1 or BSA (1 μg in 1-μl volume) were microinjected through a 28.5-gauge MicroFine needle (BD) into the palatal gingiva between the first and the second molar teeth, on both sides of the maxilla. Half of the Del-1 or BSAtreated mice were additionally orally inoculated with P. gingivalis ATCC 33277 (10^9 CFU) in 2% carboxymethylcellulose vehicle and the other half were orally given vehicle alone. All mice were sacrificed 12 h later. Maxillae were harvested and one side was stored in 4% paraformaldehyde for immunohistochemistry (see below), while the other side was used to dissect interdental gingiva which were placed into RNAlater solution (Ambion) for qPCR (see below). To determine whether IL-17 regulates Del-1 expression, a neutralizing anti-IL-17A mAb (clone M210, rat IgG2a; kindly provided by Amgen) was microinjected into the palatal gingiva (1 μg) as described above. Purified azide-free rat IgG2a (Biolegend) served as control. qPCR was used to determine […] in dissected gingiva.
Total RNA was extracted from excised gingival tissue or cultured cells using the PerfectPure RNA cell kit (5 Prime, Fisher) and quantified by spectrometry at 260 and 280 nm. The RNA was reverse-transcribed using the High-Capacity cDNA Archive kit (Applied Biosystems) and qPCR with cDNA was performed using the ABI 7500 Fast System, according to the manufacturer's protocol (Applied Biosystems). TaqMan probes, sense primers, and antisense primers for qPCR of genes investigated in this paper were purchased from Applied Biosystems.

[2] = tested on: periodontal inflammation in old mice; experiment: Immunohistochemistry of interdental gingiva of old mice microinjected with Del-1 or BSA; type: in vivo, C57BL/6 mice
Method: FIG. 24. Del-1 inhibits IL-17 and periodontal inflammation in old mice. Eighteen-month-old C57BL/6 mice were microinjected in the gingiva with BSA (control) or Del-1, as indicated. In addition, the mice were orally administered P. gingivalis in 2% carboxymethylcellulose vehicle (a, b, c; lower rows) or vehicle control (a, b, c; upper rows) and were sacrificed 12 h later. Sagittal sections of interdental gingiva were stained for the neutrophil marker Ly6G (a), IL-17A (b), or TNF (c). Shown are typical fluorescent confocal images (left) and their overlays with corresponding DIC images (right). (d) The fluorescence intensities of these and additional representative images from independent mice were quantified using ImageJ analysis; data were expressed as % intensity of the Del-1-treated groups relative to the BSA-treated controls, the value of which was set to 100% (dashed line). ‘Induced inflammation’ refers to the groups inoculated with P. gingivalis. Data are means±SD (n=5 mice per group) from one of two independent experiments yielding similar results. **P<0.01 compared to BSA-treated controls.
as §1
Maxillae with intact surrounding tissue were fixed in 4% paraformaldehyde, decalcified in Immunocal solution (Decal) for 15 days, and embedded in OCT compound. Serial mesio-distal sections (7- to 8-μm thick) parallel to the long axis of the teeth (sagittal) were stained with monoclonal antibodies to mouse Ly6G (RB6-8C5, FITC-conjugate; LifeSpan BioSciences), mouse CD4 (GK1.5, FITC- or PE-conjugate; LifeSpan), mouse γδ T-cell receptor (GL3, FITC-conjugate; LifeSpan Biosciences) or with polyclonal antibodies to human/mouse Del-1 (ProteinTech), human/mouse IL-17A (Santa Cruz Biotech), human/mouse TNF (Abcam), human/mouse RANKL (Santa Cruz), and mouse CD31 (LifeSpan). Where necessary, staining involved the use of a secondary reagent (AlexaFluor594-conjugated goat anti-rabbit IgG; Molecular Probes). The specificity of staining was confirmed by using appropriate FITC-conjugated isotype controls or normal rabbit IgG followed by AlexaFluor594-goat anti-rabbit IgG. Images were captured using a laser-scanning confocal microscope (Olympus FV1000). Fluorescence intensity was quantified using the Image J software (NIH; http://rsb.info.nih.gov/ij).

[3] = tested on: WT neutrophils; experiment: Cytokine/chemokine release by isolated neutrophils stimulated with LPS plus C5a; type: cell-based, mouse; details: soluble Del-1 10 μg/ml, LPS (100 ng/ml) plus C5a (10 nM), 4 h
Method: FIG. 27. Effects of Del-1 deficiency or Del-1 on neutrophil function. (a) Migration of neutrophils isolated from wild-type (WT) or Edil3^−/− mice was tested in a transwell system. Chemokinesis (in the absence of a chemokine in the bottom well) or chemotaxis to CXCL2 (10 ng/ml) in the bottom well was assessed after 60 min. The migration of WT neutrophils in the absence of chemokine was set as the 100% control (dashed line) and the data were expressed relative to this value. (b) Neutrophils isolated from WT or Edil3^−/− mice were stimulated or not for 4 h with LPS (100 ng/ml) plus C5a (10 nM) and release of the indicated cytokines or chemokines in the culture supernatants was determined by ELISA. (c) WT neutrophils, in the presence or absence of soluble Del-1 (10 μg/ml), were stimulated as above and assayed for release of the indicated cytokines or chemokines. Data are means±SD (n=3 sets of neutrophils), from one of two independent sets of experiments yielding similar results.
Mouse neutrophils were obtained by harvesting the bone marrow (Ley (2007)). Briefly, bone marrow cells, obtained after flushing tibias and femurs with RPMI 1640 containing 10% FBS, were depleted of tissue debris and erythrocytes and were resuspended in 45% Percoll. […] Neutrophil purity was routinely >95%, as determined by FACS after staining for Ly6G, F4/80, and CD3.

[4] = target: T1, LFA-1 (Mus musculus, UniProt P24063); details: at equimolar amounts; cited from earlier work
T1 construct: host or cells: leukocytes (endogenous LFA-1)
T1 sequence (P24063 24-1162): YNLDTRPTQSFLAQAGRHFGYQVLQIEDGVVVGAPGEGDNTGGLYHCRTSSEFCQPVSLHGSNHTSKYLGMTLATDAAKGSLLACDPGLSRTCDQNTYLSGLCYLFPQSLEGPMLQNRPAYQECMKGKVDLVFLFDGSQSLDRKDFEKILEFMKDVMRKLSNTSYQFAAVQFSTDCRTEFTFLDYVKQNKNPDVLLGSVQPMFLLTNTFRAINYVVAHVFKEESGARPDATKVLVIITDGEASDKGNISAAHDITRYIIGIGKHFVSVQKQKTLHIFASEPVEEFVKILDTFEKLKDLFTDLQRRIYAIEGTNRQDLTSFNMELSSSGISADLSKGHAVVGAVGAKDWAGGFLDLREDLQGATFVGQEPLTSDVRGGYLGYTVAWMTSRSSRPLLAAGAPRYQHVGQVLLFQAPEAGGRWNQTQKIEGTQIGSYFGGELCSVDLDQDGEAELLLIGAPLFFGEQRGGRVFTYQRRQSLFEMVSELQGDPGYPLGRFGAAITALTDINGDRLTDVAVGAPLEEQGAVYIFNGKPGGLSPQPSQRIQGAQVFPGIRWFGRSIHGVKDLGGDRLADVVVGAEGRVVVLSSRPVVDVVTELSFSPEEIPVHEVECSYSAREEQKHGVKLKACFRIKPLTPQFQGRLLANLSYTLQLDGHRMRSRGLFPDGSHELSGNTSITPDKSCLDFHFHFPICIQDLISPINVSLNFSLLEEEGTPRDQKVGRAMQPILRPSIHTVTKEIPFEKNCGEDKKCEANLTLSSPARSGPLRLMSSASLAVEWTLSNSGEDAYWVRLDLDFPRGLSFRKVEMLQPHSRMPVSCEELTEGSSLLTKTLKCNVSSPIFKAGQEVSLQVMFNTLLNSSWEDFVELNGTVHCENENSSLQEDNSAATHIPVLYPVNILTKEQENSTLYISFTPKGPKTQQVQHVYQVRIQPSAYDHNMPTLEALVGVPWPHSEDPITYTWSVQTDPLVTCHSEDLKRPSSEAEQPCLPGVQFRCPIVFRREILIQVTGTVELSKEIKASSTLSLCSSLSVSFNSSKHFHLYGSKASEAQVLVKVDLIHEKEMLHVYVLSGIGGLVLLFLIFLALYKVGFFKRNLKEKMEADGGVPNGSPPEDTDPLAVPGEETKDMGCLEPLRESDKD
T1 sequence (P11835 24-771 partner): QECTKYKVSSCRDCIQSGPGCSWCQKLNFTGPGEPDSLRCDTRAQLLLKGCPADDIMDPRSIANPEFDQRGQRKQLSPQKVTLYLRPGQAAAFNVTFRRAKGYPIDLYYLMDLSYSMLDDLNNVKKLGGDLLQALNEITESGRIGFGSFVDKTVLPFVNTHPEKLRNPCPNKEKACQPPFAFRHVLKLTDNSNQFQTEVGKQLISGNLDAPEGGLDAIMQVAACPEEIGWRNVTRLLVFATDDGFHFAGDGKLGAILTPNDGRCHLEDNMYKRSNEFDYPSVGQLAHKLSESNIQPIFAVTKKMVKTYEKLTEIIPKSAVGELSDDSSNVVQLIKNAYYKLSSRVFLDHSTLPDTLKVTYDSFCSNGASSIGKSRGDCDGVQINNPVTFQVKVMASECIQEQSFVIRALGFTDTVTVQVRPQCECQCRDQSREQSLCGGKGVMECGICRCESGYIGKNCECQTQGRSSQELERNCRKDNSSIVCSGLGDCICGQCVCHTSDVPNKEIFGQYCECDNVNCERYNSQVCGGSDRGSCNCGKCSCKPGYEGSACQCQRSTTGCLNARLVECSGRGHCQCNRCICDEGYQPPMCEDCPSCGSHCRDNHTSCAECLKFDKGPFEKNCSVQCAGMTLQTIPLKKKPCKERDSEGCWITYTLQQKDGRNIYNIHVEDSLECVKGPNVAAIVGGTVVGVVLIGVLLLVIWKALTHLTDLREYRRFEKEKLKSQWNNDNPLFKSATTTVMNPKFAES

[5] = tested on: mouse neutrophils; details: cited from earlier work
[6] = 18-month-old mice, local gingival microinjection 1 μg, compared to BSA control

B1: Del-1: soluble recombinant mouse Del-1 (provided by Valentis, Inc.); endothelial cell-expressed 52-kDa glycoprotein (protein)
chain: DICDPNPCENGGICLPGLADGSFSCECPDGFTDPNCSSVVEVASDEEEPTSAGPCTPNPCHNGGTCEISEAYRGDTFIGYVCKCPRGFNGIHCQHNINECEVEPCKNGGICTDLVANYSCECPGEFMGRNCQYKCSGPLGIEGGIISNQQITASSTHRALFGLQKWYPYYARLNKKGLINAWTAAENDRWPWIQINLQRKMRVTGVITQGAKRIGSPEYIKSYKIAYSNDGKTWAMYKVKGTNEDMVFRGNIDNNTPYANSFTPPIKAQYVRLYPQVCRRHCTLRMELLGCELSGCSEPLGMKSGHIQDYQITASSIFRTLNMDMFTWEPRKARLDKQGKVNAWTSGHNDQSQWLQVDLLVPTKVTGIITQGAKDFGHVQFVGSYKLAYSNDGEHWTVYQDEKQRKDKVFQGNFDNDTHRKNVIDPPIYARHIRILPWSWYGRITLRSELLGCTEEE
- C3aR mRNA, Fold change vs. Del-1-untreated controls ([1]; CMC only): 0.49 Fold change
- C5aR mRNA, Fold change vs. Del-1-untreated controls ([1]; CMC only): 0.50 Fold change
- CCL2 mRNA, Fold change vs. Del-1-untreated controls ([1]; CMC only): 0.48 Fold change
- CCL3 mRNA, Fold change vs. Del-1-untreated controls ([1]; CMC only): 1.02 Fold change
- CCL20 mRNA, Fold change vs. Del-1-untreated controls ([1]; CMC only): 0.24 Fold change
- CCR2 mRNA, Fold change vs. Del-1-untreated controls ([1]; CMC only): 0.26 Fold change
- CCR6 mRNA, Fold change vs. Del-1-untreated controls ([1]; CMC only): 0.25 Fold change
- CD40 mRNA, Fold change vs. Del-1-untreated controls ([1]; CMC only): 0.24 Fold change
- CD80 mRNA, Fold change vs. Del-1-untreated controls ([1]; CMC only): 0.25 Fold change
- CD86 mRNA, Fold change vs. Del-1-untreated controls ([1]; CMC only): 0.50 Fold change
- CXCL10 mRNA, Fold change vs. Del-1-untreated controls ([1]; CMC only): 0.25 Fold change
- CXCR4 mRNA, Fold change vs. Del-1-untreated controls ([1]; CMC only): 0.50 Fold change
- G-CSF mRNA, Fold change vs. Del-1-untreated controls ([1]; CMC only): 0.12 Fold change
- IL-1 mRNA, Fold change vs. Del-1-untreated controls ([1]; CMC only): 0.50 Fold change
- IL-6 mRNA, Fold change vs. Del-1-untreated controls ([1]; CMC only): 0.25 Fold change
- IL-17 mRNA, Fold change vs. Del-1-untreated controls ([1]; CMC only): 0.19 Fold change
- RANKL mRNA, Fold change vs. Del-1-untreated controls ([1]; CMC only): 0.49 Fold change
- TLR1 mRNA, Fold change vs. Del-1-untreated controls ([1]; CMC only): 0.24 Fold change
- TLR2 mRNA, Fold change vs. Del-1-untreated controls ([1]; CMC only): 0.26 Fold change
- TLR4 mRNA, Fold change vs. Del-1-untreated controls ([1]; CMC only): 0.25 Fold change
- TLR5 mRNA, Fold change vs. Del-1-untreated controls ([1]; CMC only): 0.51 Fold change
- TLR6 mRNA, Fold change vs. Del-1-untreated controls ([1]; CMC only): 0.27 Fold change
- TLR9 mRNA, Fold change vs. Del-1-untreated controls ([1]; CMC only): 0.25 Fold change
- TNF mRNA, Fold change vs. Del-1-untreated controls ([1]; CMC only): 0.50 Fold change
- TREM-1 mRNA, Fold change vs. Del-1-untreated controls ([1]; CMC only): 0.49 Fold change
- C3aR mRNA, Fold change vs. Del-1-untreated controls ([1]; Pg (P. gingivalis inoculated)): 0.49 Fold change
- C5aR mRNA, Fold change vs. Del-1-untreated controls ([1]; Pg (P. gingivalis inoculated)): 0.25 Fold change
- CCL2 mRNA, Fold change vs. Del-1-untreated controls ([1]; Pg (P. gingivalis inoculated)): 0.49 Fold change
- CCL3 mRNA, Fold change vs. Del-1-untreated controls ([1]; Pg (P. gingivalis inoculated)): 0.51 Fold change
- CCL20 mRNA, Fold change vs. Del-1-untreated controls ([1]; Pg (P. gingivalis inoculated)): 0.49 Fold change
- CCR2 mRNA, Fold change vs. Del-1-untreated controls ([1]; Pg (P. gingivalis inoculated)): 0.12 Fold change
- CCR6 mRNA, Fold change vs. Del-1-untreated controls ([1]; Pg (P. gingivalis inoculated)): 0.13 Fold change
- CD40 mRNA, Fold change vs. Del-1-untreated controls ([1]; Pg (P. gingivalis inoculated)): 0.25 Fold change
- CD80 mRNA, Fold change vs. Del-1-untreated controls ([1]; Pg (P. gingivalis inoculated)): 0.25 Fold change
- CD86 mRNA, Fold change vs. Del-1-untreated controls ([1]; Pg (P. gingivalis inoculated)): 0.49 Fold change
- CXCL10 mRNA, Fold change vs. Del-1-untreated controls ([1]; Pg (P. gingivalis inoculated)): 0.26 Fold change
- CXCR4 mRNA, Fold change vs. Del-1-untreated controls ([1]; Pg (P. gingivalis inoculated)): 0.24 Fold change
- G-CSF mRNA, Fold change vs. Del-1-untreated controls ([1]; Pg (P. gingivalis inoculated)): 0.25 Fold change
- IL-1 mRNA, Fold change vs. Del-1-untreated controls ([1]; Pg (P. gingivalis inoculated)): 0.25 Fold change
- IL-6 mRNA, Fold change vs. Del-1-untreated controls ([1]; Pg (P. gingivalis inoculated)): 0.24 Fold change
- IL-17 mRNA, Fold change vs. Del-1-untreated controls ([1]; Pg (P. gingivalis inoculated)): 0.25 Fold change
- RANKL mRNA, Fold change vs. Del-1-untreated controls ([1]; Pg (P. gingivalis inoculated)): 0.25 Fold change
- TLR1 mRNA, Fold change vs. Del-1-untreated controls ([1]; Pg (P. gingivalis inoculated)): 0.24 Fold change
- TLR2 mRNA, Fold change vs. Del-1-untreated controls ([1]; Pg (P. gingivalis inoculated)): 0.25 Fold change
- TLR4 mRNA, Fold change vs. Del-1-untreated controls ([1]; Pg (P. gingivalis inoculated)): 0.12 Fold change
- TLR5 mRNA, Fold change vs. Del-1-untreated controls ([1]; Pg (P. gingivalis inoculated)): 0.51 Fold change
- TLR6 mRNA, Fold change vs. Del-1-untreated controls ([1]; Pg (P. gingivalis inoculated)): 0.26 Fold change
- TLR9 mRNA, Fold change vs. Del-1-untreated controls ([1]; Pg (P. gingivalis inoculated)): 0.51 Fold change
- TNF mRNA, Fold change vs. Del-1-untreated controls ([1]; Pg (P. gingivalis inoculated)): 0.51 Fold change
- TREM-1 mRNA, Fold change vs. Del-1-untreated controls ([1]; Pg (P. gingivalis inoculated)): 0.24 Fold change
- expression of IL-17 in the periodontium [2, 6]: diminished
- expression of TNF in the periodontium [2, 6]: diminished
- neutrophil infiltration in the periodontium (Ly6G staining) [2, 6]: reduced
- inflammation induced by oral inoculation with Porphyromonas gingivalis ([2]; old mice, P. gingivalis inoculated): suppressed
- constitutive (naturally occurring) inflammation ([2]; old mice, vehicle only): suppressed
- cytokine and chemokine induction (TNF, CXCL1 release) by neutrophils [3]: did not exert a direct effect; also recorded: No significant differences
- competition with ICAM-1 for binding to LFA-1 on leukocytes [4]: outcompetes ICAM-1
- LFA-1-dependent adhesion of mouse neutrophils to mouse endothelial cells [5]: competitively inhibits

— patent US20140302027A1, “METHODS OF TREATING PERIODONTAL INFLAMMATION AND PERIODONTAL BONE LOSS” (United States of America as Represented by the Secretary, …, priority 2011, published 2014)
